Measurements reported in patent publication US5766896A, “Method of producing iodine by use of a copper containing oxidase enzyme” (Novo Nordisk Biotech Inc., priority 1994, dated 1998).

Experiments:
[1] = substrate: COc1cc(C=NN=Cc2cc(OC)c(O)c(OC)c2)cc(OC)c1O; experiment: r-MtL syringaldazine oxidation; format: biochemical, Myceliophthora thermophila; settings: other: optimal pH (7); 30.0 °C
Method: The extinction coefficient of 36 mM^-1 cm^-1 is used to calculate the rate. Spectroscopic assays are conducted on either a spectrophotometer (Shimadzu UV160) or a microplate reader (Molecular Devices).

[2] = substrate: CCn1c(=NN=c2sc3cc(S(=O)(=O)O)ccc3n2CC)sc2cc(S(=O)(=O)O)ccc21; experiment: purified protein, by the assay type
[3] = other: from dependence of I^- oxidation rates on ABTS concentration, 20.0 °C
[4] = other: optimal pH of 4.1, pH 4.1, 30.0 °C

B1: recombinant Myceliophthora thermophila laccase (r-MtL) (Thermothelomyces thermophilus ATCC 42464) (protein)
chain: QQSCNTPSNRACWTDGYDINTDYEVDSPDTGVVRPYTLTLTEVDNWTGPDGVVKEKVMLVNRPTIFADWGDTIQVTVINNLETNGTSIHWHGLHQKGTNLHDGANGITECPIPPKGGRKVYRFKAQQYGTSWYHSHFSAQYGNGVVGAIQINGPASLPYDTDLGVFPISDYYYSSADELVELTKNSGAPFSDNVLFNGTAKHPETGEGEYANVTLTPGRRHRLRLINTSVENHFQVSLVNHTMTIIAADMVPVNAMTVDSLFLGVGQRYDVVIEASRTPGNYWFNVTFGGGLLCGGSRNPYPAAIFHYAGAPGGPPTDEGKAPVDHNCLDLPNLKPVVARDVPLSGFAKRPDNTLDVTLDTTGTPLFVWKVNGSAINIDWGRPVVDYVLTQNTSFPPGYNIVEVNGADQWSYWLIENDPGAPFTLPHPMHLHGHDFYVLGRSPDESPASNERHVFDPARDAGLLSGANPVRRDVTMLPAFGWVVLAFRADNPGAWLFHCHIAWHVSGGLGVVYLERADDLRGAVSDADADDLDRLCADWRHYWPTNPYPKSDSGL
With B1 the Km [1] was 10 µM, the kcat [1] was 400 turnover per minute and the Km [2, 3] was 6.4 ± 0.8 µM. For the same protein, the kcat [2, 3] was 860±40 turnover per minute, the Km ([2]; other: pH 4.1, pH 4.1) was 5.6 ± 0.5 µM and the kcat ([2]; other: pH 4.1, pH 4.1) was 1460±31 turnover per minute.

B2: bilirubin oxidase (Myrothecium verrucaria) (Albifimbria verrucaria) (protein)
chain: VAQISPQYPMFTVPLPIPPVKQPRLTVTNPVNGQEIWYYEVEIKPFTHQVYPDLGSADLVGYDGMSPGPTFQVPRGVETVVRFINNAEAPNSVHLHGSFSRAAFDGWAEDITEPGSFKDYYYPNRQSARTLWYHDHAMHITAENAYRGQAGLYMLTDPAEDALNLPSGYGEFDIPMILTSKQYTANGNLVTTNGELNSFWGDVIHVNGQPWPFKNVEPRKYRFRFLDAAVSRSFGLYFADTDAIDTRLPFKVIASDSGLLEHPADTSLLYISMAERYEVVFDFSDYAGKTIELRNLGGSIGGIGTDTDYDNTDKVMRFVVADDTTQPDTSVVPANLRDVPFPSPTTNTPRQFRFGRTGPTWTINGVAFADVQNRLLANVPVGTVERWELINAGNGWTHPIHIHLVDFKVISRTSGNNARTVMPYESGLKDVVWLGRRETVVVEAHYAPFPGVYMFHCHNLIHEDHDMMAAFNATVLPDYGYNATVFVDPMEELWQARPYELGEFQAQSGQFSVQAVTERIQTMAEYRPYAAADE
Work on B2 yielded a Km [2, 4] of 120 ± 10 µM and a kcat [2, 4] of 1310±40 turnover per minute.

B3: ceruloplasmin (porcine plasma) (Sus scrofa) (protein)
chain: KDKHYYIGIVETTWDYASDRGEKKLISVDKEQSNIYLQNGPNRIGRLYKKAIYLQYTDETFRTIIEKPVWLGFLGPIIKAETGDRVYVHFKNFASRPYTFHAHGMTYYKEHEGAIYPDNTTDFQKADDKVHPGEQYTYILHANPEQGPGKEDSNCVTRIYHSHIDAPKDIASGLIGPLIHCRKDSLDKEKEKNIDQEFVVMFSVVDENLSWYLEDNIKTYCSEPEKVEPDNEDFKESNRMYSVNGYSFGSLPGLSMCAEDRVKWYLFGMGNEIDVHAAFFHGQVLTNKNYRIDTINLFPATLFDAFMVAQNPGEWMLSCQNLNHLKAGLQAFFRVQDCKKTSSEDAIHGKHVRHYYIAAEEIIWNYAPSGIDTFTKENLTAPGSASEVFFTRGSTRIGGSYKKLVYREYKDASFTNRKERGPEEEHLGILGPVIWAEVGDTIRVTFRNKGAYPLSIEPTGVRVSKSQEGTYYASHYISSSENVPPSASHVAPKETFTYEWTVPKEVGPTYKDPVCLTKMYYSAVDPTKDIFTGLIGPMKICKKGSLLANGRLKDVDKEFYLFPTVFDENESLLLDDNIQMFTTEPNKVDKENEDFQESNKMHSMNGFMYGNQPGLNMCQGDSVVWYLFSAGNEVDVHGIYFSGNTYLSRGERRDTANLFPQTSLRLFMQPDTAGTFDVECLTTDHYTGGMKQKYTVNQCKQLNENSYLYLGERTYYIAAVEVEWDYSPSREWEKELHHSQERNVSNAFLDKGEFYIGSKYKKVVYRQFTDSTFQVPVQRKAKEEHLGILGPQLHADVGDKVNIVFKNTATRPYSIHAHGVKTESPTVIPTVPGETRTYVWKIPERSGAGIDDSPCIPWVYYSTVDQVKDLYSGLIGPLIVCRKPYLKVFNPIKNLEFSLLFLVFDENESWYLDDNIKTYSDHPEKVDKANDEFIESNKMHAINGRMFGNLQGLTMHVGDEVNWYLMGMGNEIDLHTVHFHGHSFQYQHRGIYTSDVFDIFPGTYQTLEMFPKTSGTWLLHCHVTDHIHAGMETTYTVLPNEETKSG
B3 showed a Km ([2]; other: pH 4.1, pH 4.1, 30.0 °C) of 110 ± 40 µM and a kcat ([2]; other: pH 4.1, pH 4.1, 30.0 °C) of 9.3±1.3 turnover per minute.
